In patent publication US20250066490A1, “ANTI-CD70 ANTIBODIES, CONJUGATES THEREOF AND METHODS OF USING THE SAME” (ProfoundBio US Co., priority 2021, published 2025):
Numbering of substitutions follows the chain as printed.

T1: CD70 ECD (Homo sapiens, UniProt P32970)
T1 sequence (P32970 39-193 limits assumed): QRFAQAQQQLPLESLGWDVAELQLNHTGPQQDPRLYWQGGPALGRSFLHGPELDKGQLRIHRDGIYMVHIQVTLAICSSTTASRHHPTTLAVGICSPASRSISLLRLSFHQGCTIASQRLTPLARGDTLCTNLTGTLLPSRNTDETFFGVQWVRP

B1: 1H8: anti-CD70 antibody clone, VH SEQ 5 and VL SEQ 6; scFv and full human IgG1/kappa (antibody, V domains shown)
VH: QVQLQESGPGLVKPSETLSLTCTVSGGSVSSDYYYWSWIRQPPGKGLEWLGYIYYSGSTNYNPSLKSRVTISVDTSKNQFSLKLRSVTTADTAVYYCARGDGDFMGVCFDYWGQGTLVTVSS
VL: EIVLTQSPATLSLSPGERATLSCRASQSVSSYLAWYQQKPGQAPRLLIFDASNRATGIPARFSGSGSGTDFTLTISSLEPEDFAVYYCQQRSNWPLTFGGGTKVEIK
B2: 2D2: anti-CD70 antibody clone, VH SEQ 9 and VL SEQ 10; scFv and full human IgG1/kappa (antibody, V domains shown)
VH: B1 VH with F104Y, M105G, V107N
VL: B1 VL with S92L, N93K, W94F
modifications: left off: another chain or arm of the molecule; large carriers; small tags and cut ends
notes: scFv and full human IgG1/kappa

Tests used:
[1] = test system: 786-O, Caki-1, U251 and DBTRG-05MG cells; experiment: Antibody binding by flow cytometry, statements across all four tumor cell lines; set-up: species or system human; settings: four cell lines
Procedure: The lead antibodies were tested for binding to renal carcinoma cells and glioblastoma cells expressing CD70 on the cell surface by flow cytometry. Cell lines 786-O (ATCC® CRL-1932™, provided by COBIOER), Caki-1 (ATCC® HTB-46™, provided by COBIOER), U251 and DBTRG-05MG (ATCC® CRL-2020™, provided by COBIOER) were each tested for antibody binding. 786-O cells were cultured with RPMI 1640 medium (Gibco, Cat #11875093) containing of 10% FBS (Gibco, Cat #10099141) while Caki-1 cells were cultured with McCoy's 5a Modified medium (Gibco, Cat #16600082) containing 10% FBS. U251 cells were cultured with MEM medium containing of 10% FBS and 1% NEAA+1 mM sodium pyruvate. DBTRG-05MG cells were cultured with DMEM medium (Gibco, Cat #C11995500BT) containing of 10% FBS. Each of the lead antibodies and the controls were incubated for 30 mins with the different cell lines (3×10^5 cells per well) in 0.2 ml FACS buffer (1×PBS with 0.1% BSA) at 4° C. Then, the cells were pelleted, washed, and incubated at 4° C. for 30 mins with 100 μl of 1:200 diluted PE-conjugated anti human Fc (Abcam, Ab98596) in FACS buffer. The cells were pelleted again, washed with PBS, resuspended in FACS buffer and analyzed by flow cytometer (Beckman, CytoFLEX).

786-O cells = experiment: Internalization by FACS immune-fluorescence staining, 786-O; format: cell-based, human; settings: based on the cell binding affinity
Procedure: (§1) Briefly, 2×10^5 cells were harvested from a tissue culture flask by treatment with 0.25% Trypsin/EDTA and then incubated with 10 μg/ml of the lead antibodies or control antibodies in FACS buffer (1×PBS with 0.1% BSA) for 30 mins at 4° C. The cells were washed at 4° C. to remove unbound antibodies and kept on ice or shifted to 37° C. At the set time points (0 h, 4 h, 24 h), cells were incubated with PE-conjugated anti human Fc (Abcam, Ab98596) for 30 mins at 4° C. and then analyzed by flow cytometry. The internalization ratio was calculated by subtracting the 37° C. MFI from the 4° C. MFI, and then compared with 4° C. MFI.
(§2) Four cell lines ([…]), Caki-1, Raji, MCF-7) were utilized in the internalization assay. Target (CD70) copy numbers were determined via the QIFIKIT (DAKO, K0078). Briefly, cells were labeled with a primary mouse monoclonal antibody against CD70. Cells, Set-up beads, Calibration beads (from the kit) were then labeled in parallel with a fluorescein-conjugated anti-mouse secondary antibody. The fluorescence is correlated with the number of bound primary antibody molecules on the cells and on the beads. Samples were subsequently analyzed on the flow cytometer and copy number determined based on the calibration curve (Table 11). For internalization assay, 3×10^5 cells were incubated at 4° C. for 30 min with 10 µg/ml 2E7 in FACS buffer (1×PBS containing 0.1% BSA). Cells were washed at 4° C. to remove unbound material and kept on ice or shifted to 37° C. for different lengths of time. At progressive timepoints ([…], 0.5, 1, 2, 3, 4 hr) cells were stained with PE-conjugated anti-human Fc for 30 min at 4° C. and analyzed by flow cytometry. Internalization rate were calculated by subtracting the mean fluorescence intensity (MFI) of cell surface-bound antibody at 37° C. at each time point from the MFI of cell surface-bound antibody at 4° C. at time 0, then divided by the MFI of the cell surface-bound antibody at 4° C. at time 0.

CD70 ECD = target: T1, CD70 ECD; experiment: Biacore affinity measurement on immobilized CD70 ECD; format: binding; settings: 25° C., CD70 immobilized
Procedure: The immobilization of antigen CD70 ECD was performed at 25° C. with HBS-EP as the running buffer. Sensor chip surface of flow cells 1, 4 were activated by freshly mixed 50 mmol/L N-Hydroxy succinimide (NHS) and 200 mmol/L 1-ethyl-3-(3-dimethylaminopropyl) carbodiimide hydrochloride (EDC) for 420s (10 μL/min). Afterwards, CD70 antigen diluted in 10 mmol/L NaAC (pH 4.5) was injected into flow cell 4 to achieve conjugation of the appropriate Response Unit, while flow cell 1 was set as a blank. After the amine coupling reaction, the remaining active coupling sites on chip surface were blocked by 420s injection of 1 mol/L ethanolamine hydrochloride.
The assay was performed at 25° C. and the running buffer was HBS-EP. Diluted antibodies were injected over the surface of flow cells 1 and 4 during the association phase, followed by injecting running buffer as the dissociation phase. All the data were processed using Biacore T200 Evaluation software version 3.1. Flow cell 1 and a blank injection of buffer in each cycle were used as a double reference for Response Units subtraction. Kinetic data of the interaction between the antibodies and CD70 antigen were obtained through affinity measurement.

Caki-1 cells = experiment: Internalization by FACS immune-fluorescence staining, Caki-1; format: cell-based, human; settings: Caki-1, based on the cell binding affinity
Procedure: as §1, §2

[2] = Hydrophobic interaction chromatography (HIC); format: physicochemical; settings: full IgG; for Retention time: hydrophobicity by HIC
Procedure: Antibodies were purified from cleared cell culture supernatants using Protein A chromatography (Protein A resin slurry, 4.5 mL, Bogen, Cat #18-0010-02). Briefly, supernatants were prepared for affinity chromatography and loaded onto the columns and allowed to flow completely through the resin. The columns were washed with binding buffer containing 0.15M NaCl and 0.2M PB, PH7.0. Antibody was eluted with elution buffer containing 0.15M NaCl, 0.1M Glycine and 0.2M PB, PH 3.0. Fractions were collected and neutralized by the addition of 1/10 volume of 1M Tris, PH9.0. The fractions were dialyzed for 2 hours against 1×PBS. Purified antibody was quantified by absorbance at A280. Samples from each step of the protein A chromatography were applied onto 12% SDS-PAGE gels for reduced and non-reduced electrophoresis. The hydrophobicity was assessed with hydrophobic interaction chromatography (HIC) on a TSK gel Butyl-NPR, 4.6×100 mm with Butyl-NPR (Tosoh corporation) using a Waters HPLC 2695 system.

[3] = test system: cynomolgus CD70 recombinant protein; experiment: Antibody binding ELISA, cynomolgus CD70; settings: full IgG, FIG. 3
Procedure: The binding specificity of the CD70 antibodies was tested by ELISA according to a standard protocol. Briefly, 96-well micro-plates were coated with 2 μg/ml of human or cynomolgus CD70 recombinant protein in PBS at 100 μl per well and incubated overnight at 4° C. The plates were washed twice with TBS+0.5% Tween20. 200 μL of blocking buffer (2% BSA in PBS) was added to each well, and the plates were incubated at 37° C. for 2 hours. The plates were washed using the wash buffer mentioned above. Serially diluted antibodies were added to the ELISA plates using 100 μl per well, and the plates were incubated for 1 hour at room temperature. Then plates were washed 3 times. HRP conjugated anti-human Fc antibody solution (Sigma, I18885-2ML, diluted with blocking buffer) was added to the plates using 100 μl per well. The plates were incubated at room temperature for 1 hour and then washed 3 times. Then the TMB solution was added to plates using 100 μl per well and the plates were placed at RT for 5-15 mins. Then the stop solution (2M H2SO4) was added using 50 μl per well. The absorbance was measured at A450 and A630.

Molecule | binding ability to the cell lines compared with antibody 69A7 [1] | absolute amount of antibody internalized into cell vs parent antibody 69A7 (786-O cells) | Rmax (RU) (CD70 ECD) | ka (CD70 ECD) | kd (CD70 ECD) | absolute amount of antibody internalized into cell vs parent antibody 69A7 (Caki-1 cells) | hydrophobicity compared with the parent antibody 69A7 ([2]; HIC) | Retention time [2] | cross binding activity to the cyno-antigen [3]
B1 | slightly higher binding ability to the cell lines than that of antibody 69A7 | higher absolute amount of antibody internalized into cell than the parent antibody 69A7 | 38.81 RU | 25600 M⁻¹ s⁻¹ | 0.00112 s⁻¹ | higher absolute amount of antibody internalized into cell than the parent antibody 69A7 | slightly more hydrophobic than the parent antibody 69A7 | 10.24 min | better cross binding activity to the cyno-antigen than antibody 69A7
B2 | slightly higher binding ability to the cell lines than that of antibody 69A7 | higher absolute amount of antibody internalized into cell than the parent antibody 69A7 | 38.83 RU | 11700 M⁻¹ s⁻¹ | 0.00105 s⁻¹ | higher absolute amount of antibody internalized into cell than the parent antibody 69A7 |  | 8.81 min | better cross binding activity to the cyno-antigen than antibody 69A7
